Test results as given in the supplement of paper PMC10598134.
± gives the standard deviation.

Assay: collision cross section of modified peptide (TIMS, N2, iRT-aligned); higher = larger / more extended gas-phase ion
Procedure, shortened: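 Collision cross section was derived from the Mason-Schamp equation. Each value averages 1–3 technical replicates of the most abundant feature per charge state, measured on a timsTOF Pro/HT in dda-PASEF mode (nitrogen, ~2.4 mbar) after a 120-min nanoflow C18 gradient at 60 °C. Synthetic peptide pools (~100 fmol/µL in 2% acetonitrile/0.1% formic acid, iRT standard spiked 1:40) were identified with MaxQuant, and 1/K0 was calibrated with three reference ions and aligned run-wise to the median iRT peptide deviation.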

[1] = charge state: 3, modification: hydroxyisobutyryl
[2] = charge state: 2, modification: Succinyl
[3] = charge state: 3, modification: Succinyl
[4] = charge state: 2, modification: Nitro (Y)
[5] = charge state: 2, modification: Citrullination (R)
[6] = charge state: 2, modification: Methyl (K)
[7] = charge state: 3, modification: Methyl (K)
[8] = charge state: 2, modification: GlyGly (K)
[9] = charge state: 3, modification: GlyGly (K)
[10] = charge state: 3, modification: Malonyl
[11] = charge state: 3, modification: Trimethyl (K)

In the case of “DASTLQSQKAEGTGDAK [_DASTLQSQK(Propionyl)AEGTGDAK_]”, the collision cross section (charge state: 2, modification: Propionyl) is reported as 434.77 ± 2.9 Å².

“VFIGNLNTLVVKKK [_VFIGNLNTLVVK(hydroxyisobutyryl)KK_]” showed a collision cross section [1] of 515.31 ± 2.1 Å².

Sequence FDDTNPEKEEAK [_FDDTNPEK(Succinyl)EEAK_] has a collision cross section [2] of 397.2 ± 0.56 Å² and a collision cross section [3] of 438.25 ± 3.4 Å².

VHATSTYR [_VHATSTY(Nitro (Y))R_] showed a collision cross section [4] of 330 ± 0.55 Å² and a collision cross section (charge state: 3, modification: Nitro (Y)) of 400.02 ± 0.83 Å².

For LLEEEDSKLK [_LLEEEDSK(Dimethyl (K))LK_], the collision cross section (charge state: 2, modification: Dimethyl (K)) was 385.27 ± 0.26 Å² and the collision cross section (charge state: 3, modification: Dimethyl (K)) was 435.11 ± 2.1 Å².

For “GGSAGGRGFFR [_GGSAGGR(Citrullination (R))GFFR_]”, the collision cross section [5] was 340.82 ± 0.52 Å².

“DTPTSAGPNSFNKGK [_DTPTSAGPNSFNK(Methyl (K))GK_]” showed a collision cross section [6] of 405.71 ± 2.7 Å² and a collision cross section [7] of 460.78 ± 4.6 Å².

For “SPPLPEHQKIPCNSAEPK [_SPPLPEHQK(hydroxyisobutyryl)IPCNSAEPK_]”, the collision cross section [1] was 544.57 Å².

In the case of “GTITVSAQELKDNR [_GTITVSAQELK(GlyGly (K))DNR_]”, the collision cross section [8] is reported as 442.89 ± 0.96 Å² and the collision cross section [9] is reported as 487.43 ± 0.34 Å².

With DHLSDKESK [_DHLSDK(Butyryl)ESK_] the collision cross section (charge state: 2, modification: Butyryl) was 355.58 ± 0.7 Å².

In the case of “ITLSKHQNVQLPR [_ITLSK(Malonyl)HQNVQLPR_]”, the collision cross section [10] is reported as 478.94 ± 1.8 Å².

With “ISSNFSSIIAEKLR [_ISSNFSSIIAEK(Succinyl)LR_]” the collision cross section [2] was 432.83 ± 0.84 Å² and the collision cross section [3] was 512.74 Å².

“DYSAPVNFISAGLKK [_DYSAPVNFISAGLK(Methyl (K))K_]” showed a collision cross section [6] of 451.15 ± 3.1 Å² and a collision cross section [7] of 513.65 ± 3.5 Å².

For “GFLQPPPLRQPR [_GFLQPPPLR(Citrullination (R))QPR_]”, the collision cross section [5] was 391.62 ± 0.23 Å² and the collision cross section (charge state: 3, modification: Citrullination (R)) was 460.68 Å².

For ILDLKTGTVK [_ILDLK(Succinyl)TGTVK_], the collision cross section [2] was 362.99 ± 0.74 Å².

“GSLGAQKLANTCFNEIEK [_GSLGAQK(Biotin)LANTCFNEIEK_]” showed a collision cross section (charge state: 3, modification: Biotin) of 538.06 ± 0.96 Å².

In the case of “TFGKAAGPSLSHTSGGTQSK [_TFGK(Malonyl)AAGPSLSHTSGGTQSK_]”, the collision cross section [10] is reported as 514.27 ± 0.92 Å².

With VVDLLAPYAK [_VVDLLAPY(Phospho (Y))AK_] the collision cross section (charge state: 2, modification: Phospho (Y)) was 379.49 ± 0.074 Å².

Sequence “IDLPAENSNSETIIITGKR [_IDLPAENSNSETIIITGK(Trimethyl (K))R_]” has a collision cross section [11] of 576.62 Å².

“FDDTNPEKEEAK [_FDDTNPEK(Methyl (K))EEAK_]” gave a collision cross section [6] of 400.43 ± 1.8 Å² and a collision cross section [7] of 498.56 ± 1.5 Å².

With “PSVGSQSNQAGQGKR [_PSVGSQSNQAGQGK(GlyGly (K))R_]” the collision cross section [8] was 441.17 ± 1.6 Å² and the collision cross section [9] was 461.66 ± 1.1 Å².

Work on LDHLAEKFR [_LDHLAEK(Trimethyl (K))FR_] yielded a collision cross section [11] of 436.32 ± 0.025 Å².

For “AQPQDSRGGSK [_AQPQDSR(Citrullination (R))GGSK_]”, the collision cross section [5] was 347.45 ± 0.9 Å².

LQLEIDQKK [_LQLEIDQK(Crotonyl)K_] gave a collision cross section (charge state: 2, modification: Crotonyl) of 366.56 Å².

SRFYSGFNSR [_SR(Methyl (R))FYSGFNSR_] gave a collision cross section (charge state: 2, modification: Methyl (R)) of 375.99 ± 1.6 Å² and a collision cross section (charge state: 3, modification: Methyl (R)) of 436.64 ± 3.4 Å².

For VDATADYICK [_VDATADY(Nitro (Y))ICK_], the collision cross section [4] was 358.43 ± 0.17 Å².

With VNALKNLQVK [_VNALK(Succinyl)NLQVK_] the collision cross section [2] was 370.5 ± 1.8 Å².

“VLTANSNPSSPSAAKR [_VLTANSNPSSPSAAK(GlyGly (K))R_]” gave a collision cross section [8] of 445.95 ± 0.95 Å² and a collision cross section [9] of 511.93 ± 0.35 Å².

For ASPPLFQSR [_ASPPLFQS(HexNAc (ST))R_], the collision cross section (charge state: 2, modification: HexNAc (ST)) was 363.62 ± 0.64 Å².

In the case of “IPQEKCILQTDVK [_IPQEK(Malonyl)CILQTDVK_]”, the collision cross section (charge state: 2, modification: Malonyl) is reported as 431.57 Å².
